Test results reported in paper PMC5987714 (The Journal of Cell Biology, 2018).

Legend:
TRAF2 = TRAF2 (UniProt Q12933); experiment: two-color single-molecule coincidence; details: reference: no ABL1; sites Y14
[1] = target: T1, mCherry-CAV1^FL (caveolin-1, full length, amino acids 1–178) in cell-free caveolae (UniProt Q03135 1-178); experiment: two-color single-molecule fluorescence coincidence
T1 sequence: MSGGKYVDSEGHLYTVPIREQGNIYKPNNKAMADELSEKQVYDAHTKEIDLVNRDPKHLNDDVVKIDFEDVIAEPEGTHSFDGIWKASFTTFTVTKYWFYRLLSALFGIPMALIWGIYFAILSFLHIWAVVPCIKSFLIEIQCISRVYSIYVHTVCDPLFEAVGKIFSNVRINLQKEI

[2] = target: T2, mCherry-CAV1^Y14-p (CAV1 + ABL1 coexpression) (UniProt Q03135 1-178); experiment: two-color single-molecule fluorescence coincidence
T2 sequence: T1 sequence

CAV1 (caveolin-1; cell-free and transfected constructs) 1-178 (from UniProt Q03135) untagged ABL1 coexpressed
other: position of coincidence peak (TRAF2): stronger; reference 0.75

B1: GFP-TRAF2 (TNF receptor–associated factor 2), cell-free (natural protein)
chain: MAAASVTPPGSLELLQPGFSKTLLGTKLEAKYLCSACRNVLRRPFQAQCGHRYCSFCLASILSSGPQNCAACVHEGIYEEGISILESSSAFPDNAARREVESLPAVCPSDGCTWKGTLKEYESCHEGRCPLMLTECPACKGLVRLGEKERHLEHECPERSLSCRHCRAPCCGADVKAHHEVCPKFPLTCDGCGKKKIPREKFQDHVKTCGKCRVPCRFHAIGCLETVEGEKQQEHEVQWLREHLAMLLSSVLEAKPLLGDQSHAGSELLQRCESLEKKTATFENIVCVLNREVERVAMTAEACSRQHRLDQDKIEALSSKVQQLERSIGLKDLAMADLEQKVLEMEASTYDGVFIWKISDFARKRQEAVAGRIPAIFSPAFYTSRYGYKMCLRIYLNGDGTGRGTHLSLFFVVMKGPNDALLRWPFNQKVTLMLLDQNNREHVIDAFRPDVTSSSFQRPVNDMNIASGCPLFCPVSKMEAKNSYVRDDAIFIKAIVDLTGL
coincidence C = mCherry/(GFP+mCherry), Gaussian peak [1]: 0.75 | coincidence C = mCherry/(GFP+mCherry), Gaussian peak [2]: 0.6 | stoichiometry N [2]: ~1 mCherry-CAV1:GFP-TRAF2
